In US20210009984A1 one finds Km value, Michaelis-Menten constant that represents a half of the maximum absorption rate (intracellular absorption in CCD986SK cells, read by enzyme activity after 24 hours) data, which are given here for 2 substances.

The experiment has as its target mannose-6-phosphate receptors (M6PR) (human). In words: cell-based or functional assay.

alpha-galactosidase-Fc fusion protein: the Km value, Michaelis-Menten constant that represents a half of the maximum absorption rate (intracellular absorption in CCD986SK cells, read by enzyme activity after 24 hours) was 0.0116 µM.
The figure for “agalsidase-beta (from UniProt P06280 32-429) (enzyme)” is 0.0109 µM.
